Data set [1] deals with FUS RRM (UniProt P35637 275-385). The data set can be described thus: NMR; CSPs (data not shown); no stem opening at 1.75:1; NMR: 25 mM phosphate pH 6.8, 25 mM KCl, 298 K, 50-100 uM protein; EMSA: 20 mM HEPES pH 7.5, 60 mM KCl, room temperature; melting: 10 mM HEPES-KOH pH 7.6, 130 mM KCl, 30 C. The note with it: protein: recombinant; hairpin, 10 bp stem, 4 nt loop.
In data set [2] the target is T1, YB-1C (UniProt P67809 1-180). The data set is described as follows: NMR (1H imino and 1H-15N HSQC); multiple peaks at 1:1, lost at 0.25:1; NMR: 25 mM phosphate pH 6.8, 25 mM KCl, 298 K, 50-100 uM protein; EMSA: 20 mM HEPES pH 7.5, 60 mM KCl, room temperature; melting: 10 mM HEPES-KOH pH 7.6, 130 mM KCl, 30 C. The note with it: protein: recombinant; tags: His tag (Ni-NTA); hairpin, 10 bp stem, 4 nt loop.
T1 sequence (P67809 1-180): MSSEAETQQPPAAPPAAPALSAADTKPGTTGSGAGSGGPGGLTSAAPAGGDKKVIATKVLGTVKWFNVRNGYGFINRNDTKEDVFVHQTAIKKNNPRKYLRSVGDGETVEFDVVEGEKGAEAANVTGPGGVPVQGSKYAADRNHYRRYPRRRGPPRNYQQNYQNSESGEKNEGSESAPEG

For data set [3], the target named is T1, YB-1C. The data set can be described thus: NMR (1H-15N HSQC); single peaks; NMR: 25 mM phosphate pH 6.8, 25 mM KCl, 298 K, 50-100 uM protein; EMSA: 20 mM HEPES pH 7.5, 60 mM KCl, room temperature; melting: 10 mM HEPES-KOH pH 7.6, 130 mM KCl, 30 C. As to conditions: protein: recombinant; tags: His tag (Ni-NTA).
In data set [4] the target is T2, YB-1-KY (UniProt P67809 1-180, K137A;Y138A). The data set can be described thus: NMR (1H-15N HSQC); CSD binding unaffected vs wild type; NMR: 25 mM phosphate pH 6.8, 25 mM KCl, 298 K, 50-100 uM protein; EMSA: 20 mM HEPES pH 7.5, 60 mM KCl, room temperature; melting: 10 mM HEPES-KOH pH 7.6, 130 mM KCl, 30 C. As to conditions: protein: recombinant; tags: His tag (Ni-NTA).
T2 sequence (P67809 1-180 K137A/Y138A): as the sequence (P67809 1-180) above, with K137A, Y138A counted along it

For data set [5], the target named is T3, YB-1-RK (UniProt P67809 1-180, R97A;K98A). Described as above. As to conditions: protein: recombinant; tags: His tag (Ni-NTA).
T3 sequence (P67809 1-180 R97A/K98A): as the sequence (P67809 1-180) above, with R97A, K98A counted along it
Data set [6] addresses T1, YB-1C. The data set is described as follows: fluorescence melting; 130 mM KCl, 30 C; 10:1 protein:DNA; NMR: 25 mM phosphate pH 6.8, 25 mM KCl, 298 K, 50-100 uM protein; EMSA: 20 mM HEPES pH 7.5, 60 mM KCl, room temperature; melting: 10 mM HEPES-KOH pH 7.6, 130 mM KCl, 30 C. As to conditions: protein: recombinant; tags: His tag (Ni-NTA); label: 5' FAM, 3' BHQ1; hairpin.
Data set [7] concerns the target YB-1 (full length) (UniProt P67809 1-324). The data set is described as follows: fluorescence melting; 130 mM KCl, 30 C; 10:1 protein:DNA; opening of hairpin; NMR: 25 mM phosphate pH 6.8, 25 mM KCl, 298 K, 50-100 uM protein; EMSA: 20 mM HEPES pH 7.5, 60 mM KCl, room temperature; melting: 10 mM HEPES-KOH pH 7.6, 130 mM KCl, 30 C. As to conditions: protein: recombinant, tags: His tag (Ni-NTA), label: 5' FAM, 3' BHQ1.

The target in data set [8] is T1, YB-1C. The data set is described as follows: NMR (1H-15N HSQC); multiple peaks; NMR: 25 mM phosphate pH 6.8, 25 mM KCl, 298 K, 50-100 uM protein; EMSA: 20 mM HEPES pH 7.5, 60 mM KCl, room temperature; melting: 10 mM HEPES-KOH pH 7.6, 130 mM KCl, 30 C. The note with it: protein: recombinant; tags: His tag (Ni-NTA); hairpin, 10 bp stem, 4 nt loop.
Data set [9] has as its target T2, YB-1-KY. The data set is described as follows: NMR (1H-15N HSQC); no multiple peaks; stem not destabilized; NMR: 25 mM phosphate pH 6.8, 25 mM KCl, 298 K, 50-100 uM protein; EMSA: 20 mM HEPES pH 7.5, 60 mM KCl, room temperature; melting: 10 mM HEPES-KOH pH 7.6, 130 mM KCl, 30 C. As to conditions: protein: recombinant; tags: His tag (Ni-NTA); hairpin, 10 bp stem, 4 nt loop.

Data set [10] concerns the target T3, YB-1-RK. The description is as above. As to conditions: protein: recombinant; tags: His tag (Ni-NTA); hairpin, 10 bp stem, 4 nt loop.

FUS RRM, sequence (P35637 275-385): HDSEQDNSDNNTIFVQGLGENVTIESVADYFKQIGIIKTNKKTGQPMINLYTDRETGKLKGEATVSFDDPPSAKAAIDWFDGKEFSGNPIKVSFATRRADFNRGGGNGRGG
YB-1 (full length), sequence (P67809 whole entry): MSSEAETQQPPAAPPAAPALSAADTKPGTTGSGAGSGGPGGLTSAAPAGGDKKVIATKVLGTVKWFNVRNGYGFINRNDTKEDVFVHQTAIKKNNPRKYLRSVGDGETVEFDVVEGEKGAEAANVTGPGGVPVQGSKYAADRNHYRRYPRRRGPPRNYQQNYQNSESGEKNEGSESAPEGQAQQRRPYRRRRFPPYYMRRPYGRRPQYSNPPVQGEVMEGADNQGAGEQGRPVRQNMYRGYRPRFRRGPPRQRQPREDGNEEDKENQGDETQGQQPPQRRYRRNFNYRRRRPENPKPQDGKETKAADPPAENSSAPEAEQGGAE

B1: ACT-4G DNA stem/loop (structured_DNA)
DNA: ACAGACAGAACCCCTTCTGTCTGT
For B1, the binding result in data set [1] and in data set [2] was “binds” each time.

B2: A10 (ssDNA)
DNA: AAAAAAAAAA
With B2, in data set [3], the binding result is “binds”.

B3: C10 (ssDNA)
DNA: CCCCCCCCCC
B3: the binding result in data set [3], in data set [4] and in [5] was “binds” in each case.

B4: T10 (ssDNA)
DNA: TTTTTTTTTT
In the case of B4, the binding result in data set [3] is “binds”.

B5: DNA1 hairpin (structured_DNA)
DNA: GGGGGGGGTTAACCCCCCCC
Turning to B5, the binding result in data set [6] and in data set [7] was “binds” each time.

B6: ACU-4G RNA stem/loop (structured_RNA)
RNA: ACAGACAGAACCCCUUCUGUCUGU
Take B6: the binding result in data set [8], in data set [9] and in [10] was “binds” throughout.

The record behind these values is paper PMC8464072, “YB-1 unwinds mRNA secondary structures in vitro and negatively regulates stress granule assembly in HeLa cells”.
